Data as given in publication PMC11788743, “Biochemical characterization of the human ubiquitous glucose‐6‐phosphatase in neutrophil granulocytes” (FEBS Open Bio, 2024).

Tests used:
[1] = substrate: O=P(O)(O)OC[C@@H](O)[C@@H](O)[C@H](O)[C@@H](O)CO; experiment: inorganic phosphate release (molybdate), Michaelis-Menten fit, GFP control subtracted; type: biochemical, Homo sapiens; details: 50 mM Mops pH 6.5, 25 mM CaCl2, 0.5 mM MnCl2, 2.5 mM EDTA, 37 °C, alamethicin, apparent, cell lysate
Source text: (§1) inorganic phosphate release (molybdate), Michaelis-Menten fit, GFP control subtracted on human recombinant G6PC3 (glucose-6-phosphatase-β)

[2] = substrate: O=C(O)[C@H](O)[C@@H](O)[C@H](O)[C@H](O)COP(=O)(O)O; experiment: as above; type: biochemical, Homo sapiens; details: 50 mM Mops pH 6.5, 25 mM CaCl2, 0.5 mM MnCl2, 2.5 mM EDTA, 37 °C, alamethicin, apparent, cell lysate
Source text: as §1

B1: human recombinant G6PC3 (glucose-6-phosphatase-β) (Homo sapiens) (protein)
chain: MESTLGAGIVIAEALQNQLAWLENVWLWITFLGDPKILFLFYFPAAYYASRRVGIAVLWISLITEWLNLIFKWFLFGDRPFWWVHESGYYSQAPAQVHQFPSSCETGPGSPSGHCMITGAALWPIMTALSSQVATRARSRWVRVMPSLAYCTFLLAVGLSRIFILAHFPHQVLAGLITGAVLGWLMTPRVPMERELSFYGLTALALMLGTSLIYWTLFTLGLDLSWSISLAFKWCERPEWIHVDSRPFASLSRDSGAALGLGIALHSPCYAQVRRAQLGNGQKIACLVLAMGLLGPLDWLGHPPQISLFYIFNFLKYTLWPCLVLALVPWAVHMFSAQEAPPIHSS
notes: full-length G6PC3 cDNA (universal human cDNA) in pEGFP-N1 (XhoI/EcoRI), GFP-G6PC3 fusion, overexpressed in HEK293T; alamethicin-permeabilized cell lysate
With B1 as the protein, how does the Km [1] read?
The Km was 5.11 ± 0.7 mM.

And the Vmax [1]?
The Vmax was 1.66 µmol/min/mg.

What about the Km [2] of the same protein?
The Km was 8.22 ± 1.4 mM.

And the Vmax [2]?
Its Vmax is 0.19 µmol/min/mg.
